Measured values published in the supplement of paper PMC10065799, “High-throughput profiling of sequence recognition by tyrosine kinases and SH2 domains using bacterial peptide display” (eLife, 2023).

Assays:
AncSZ = assay: phosphorylation enrichment, bacterial display (enrichment ratio); higher = better substrate or ligand; peptides without Tyr show the background
EPHB1 = EPHB1 (UniProt P54762); assay: as above
EPHB2 = EPHB2 (UniProt P29323); assay: as above
FGFR1 = FGFR1 (UniProt P11362); assay: as above
FGFR3 = FGFR3 (UniProt P22607); assay: as above
Fer (mouse) = assay: as above
Fes = Fes (UniProt P07332); assay: as above
Fes, sequence (P07332 whole entry, looked up): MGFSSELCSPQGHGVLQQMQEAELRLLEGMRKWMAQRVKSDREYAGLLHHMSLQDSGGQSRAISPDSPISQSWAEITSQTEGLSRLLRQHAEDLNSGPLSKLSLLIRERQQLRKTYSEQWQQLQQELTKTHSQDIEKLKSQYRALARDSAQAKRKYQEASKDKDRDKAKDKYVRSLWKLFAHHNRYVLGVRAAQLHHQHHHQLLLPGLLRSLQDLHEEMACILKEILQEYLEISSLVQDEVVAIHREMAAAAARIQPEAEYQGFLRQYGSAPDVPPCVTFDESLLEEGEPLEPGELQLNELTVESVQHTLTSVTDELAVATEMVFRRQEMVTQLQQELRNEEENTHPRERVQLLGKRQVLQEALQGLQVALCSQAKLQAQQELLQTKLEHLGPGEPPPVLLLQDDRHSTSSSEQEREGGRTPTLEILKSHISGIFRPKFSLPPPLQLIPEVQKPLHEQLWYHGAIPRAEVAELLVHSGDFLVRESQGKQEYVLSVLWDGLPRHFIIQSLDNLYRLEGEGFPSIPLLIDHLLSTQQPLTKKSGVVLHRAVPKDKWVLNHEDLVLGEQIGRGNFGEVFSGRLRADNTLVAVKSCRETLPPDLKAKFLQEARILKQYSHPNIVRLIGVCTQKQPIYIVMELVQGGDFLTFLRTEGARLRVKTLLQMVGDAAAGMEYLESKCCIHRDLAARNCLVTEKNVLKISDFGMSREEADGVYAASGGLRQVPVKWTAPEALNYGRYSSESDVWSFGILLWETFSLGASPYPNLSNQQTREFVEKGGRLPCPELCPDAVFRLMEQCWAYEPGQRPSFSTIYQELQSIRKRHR

Fyn = Fyn (UniProt P06241); assay: as above
Fyn, sequence (P06241 whole entry, looked up): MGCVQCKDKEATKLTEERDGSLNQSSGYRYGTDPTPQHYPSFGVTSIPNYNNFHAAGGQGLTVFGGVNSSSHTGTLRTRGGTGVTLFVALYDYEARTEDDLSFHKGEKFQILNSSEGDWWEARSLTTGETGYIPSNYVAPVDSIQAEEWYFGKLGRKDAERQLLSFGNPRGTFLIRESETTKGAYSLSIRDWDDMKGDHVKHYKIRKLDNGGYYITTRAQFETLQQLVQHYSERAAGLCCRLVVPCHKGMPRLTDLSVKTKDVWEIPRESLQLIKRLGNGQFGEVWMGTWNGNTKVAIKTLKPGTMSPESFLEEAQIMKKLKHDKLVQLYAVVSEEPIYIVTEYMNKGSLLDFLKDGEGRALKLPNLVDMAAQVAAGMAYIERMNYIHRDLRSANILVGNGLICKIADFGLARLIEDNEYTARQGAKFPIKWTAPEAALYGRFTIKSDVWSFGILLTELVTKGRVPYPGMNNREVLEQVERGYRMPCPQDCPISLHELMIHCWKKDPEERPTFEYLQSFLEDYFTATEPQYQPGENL

Hck = Hck (UniProt P08631); assay: as above
Hck, sequence (P08631 whole entry, looked up): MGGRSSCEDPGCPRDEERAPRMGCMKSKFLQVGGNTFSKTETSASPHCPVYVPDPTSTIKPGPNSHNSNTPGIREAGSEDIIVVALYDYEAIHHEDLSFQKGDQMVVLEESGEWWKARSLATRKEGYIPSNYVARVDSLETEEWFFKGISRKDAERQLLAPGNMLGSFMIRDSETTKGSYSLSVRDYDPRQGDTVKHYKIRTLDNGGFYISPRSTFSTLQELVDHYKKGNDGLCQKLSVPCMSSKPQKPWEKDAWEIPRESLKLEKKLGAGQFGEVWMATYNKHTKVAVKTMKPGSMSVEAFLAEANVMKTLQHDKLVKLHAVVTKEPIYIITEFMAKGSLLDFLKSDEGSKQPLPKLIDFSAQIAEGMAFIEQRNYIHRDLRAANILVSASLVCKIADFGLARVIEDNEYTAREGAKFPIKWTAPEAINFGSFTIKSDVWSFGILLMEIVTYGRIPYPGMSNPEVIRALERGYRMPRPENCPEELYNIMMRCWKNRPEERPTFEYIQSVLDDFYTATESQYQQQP

Jak2 = Jak2 (UniProt O60674); assay: as above
Jak2, sequence (O60674 whole entry, looked up): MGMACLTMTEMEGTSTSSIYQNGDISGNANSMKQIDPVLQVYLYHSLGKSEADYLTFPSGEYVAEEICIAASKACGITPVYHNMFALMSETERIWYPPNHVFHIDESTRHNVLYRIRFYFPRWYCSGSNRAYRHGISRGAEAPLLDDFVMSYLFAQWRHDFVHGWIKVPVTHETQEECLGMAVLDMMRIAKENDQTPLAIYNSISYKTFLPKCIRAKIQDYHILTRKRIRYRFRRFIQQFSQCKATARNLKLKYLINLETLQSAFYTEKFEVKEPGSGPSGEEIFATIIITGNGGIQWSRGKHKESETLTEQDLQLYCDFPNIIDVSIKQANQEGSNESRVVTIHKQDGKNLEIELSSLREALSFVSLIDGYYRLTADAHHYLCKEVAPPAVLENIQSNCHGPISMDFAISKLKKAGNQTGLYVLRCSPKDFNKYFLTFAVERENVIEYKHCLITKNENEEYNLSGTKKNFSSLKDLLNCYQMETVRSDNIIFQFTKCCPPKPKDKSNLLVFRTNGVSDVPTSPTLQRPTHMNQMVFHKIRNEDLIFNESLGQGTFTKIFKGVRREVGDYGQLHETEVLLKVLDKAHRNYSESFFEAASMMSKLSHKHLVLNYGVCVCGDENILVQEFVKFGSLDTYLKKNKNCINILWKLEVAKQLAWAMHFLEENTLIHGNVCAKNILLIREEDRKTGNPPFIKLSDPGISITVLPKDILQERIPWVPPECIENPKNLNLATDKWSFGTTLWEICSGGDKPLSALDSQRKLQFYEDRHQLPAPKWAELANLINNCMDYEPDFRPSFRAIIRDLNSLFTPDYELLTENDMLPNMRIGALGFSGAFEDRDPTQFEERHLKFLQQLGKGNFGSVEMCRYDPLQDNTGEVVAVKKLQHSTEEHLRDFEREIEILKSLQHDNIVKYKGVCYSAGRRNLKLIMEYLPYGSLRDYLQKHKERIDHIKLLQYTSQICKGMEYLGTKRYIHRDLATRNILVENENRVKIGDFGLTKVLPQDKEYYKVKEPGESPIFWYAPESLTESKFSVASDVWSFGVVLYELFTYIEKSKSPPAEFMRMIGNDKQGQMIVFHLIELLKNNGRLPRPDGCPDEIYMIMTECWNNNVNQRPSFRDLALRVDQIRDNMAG

MERTK = MERTK (UniProt Q12866); assay: as above
MERTK, sequence (Q12866 whole entry, looked up): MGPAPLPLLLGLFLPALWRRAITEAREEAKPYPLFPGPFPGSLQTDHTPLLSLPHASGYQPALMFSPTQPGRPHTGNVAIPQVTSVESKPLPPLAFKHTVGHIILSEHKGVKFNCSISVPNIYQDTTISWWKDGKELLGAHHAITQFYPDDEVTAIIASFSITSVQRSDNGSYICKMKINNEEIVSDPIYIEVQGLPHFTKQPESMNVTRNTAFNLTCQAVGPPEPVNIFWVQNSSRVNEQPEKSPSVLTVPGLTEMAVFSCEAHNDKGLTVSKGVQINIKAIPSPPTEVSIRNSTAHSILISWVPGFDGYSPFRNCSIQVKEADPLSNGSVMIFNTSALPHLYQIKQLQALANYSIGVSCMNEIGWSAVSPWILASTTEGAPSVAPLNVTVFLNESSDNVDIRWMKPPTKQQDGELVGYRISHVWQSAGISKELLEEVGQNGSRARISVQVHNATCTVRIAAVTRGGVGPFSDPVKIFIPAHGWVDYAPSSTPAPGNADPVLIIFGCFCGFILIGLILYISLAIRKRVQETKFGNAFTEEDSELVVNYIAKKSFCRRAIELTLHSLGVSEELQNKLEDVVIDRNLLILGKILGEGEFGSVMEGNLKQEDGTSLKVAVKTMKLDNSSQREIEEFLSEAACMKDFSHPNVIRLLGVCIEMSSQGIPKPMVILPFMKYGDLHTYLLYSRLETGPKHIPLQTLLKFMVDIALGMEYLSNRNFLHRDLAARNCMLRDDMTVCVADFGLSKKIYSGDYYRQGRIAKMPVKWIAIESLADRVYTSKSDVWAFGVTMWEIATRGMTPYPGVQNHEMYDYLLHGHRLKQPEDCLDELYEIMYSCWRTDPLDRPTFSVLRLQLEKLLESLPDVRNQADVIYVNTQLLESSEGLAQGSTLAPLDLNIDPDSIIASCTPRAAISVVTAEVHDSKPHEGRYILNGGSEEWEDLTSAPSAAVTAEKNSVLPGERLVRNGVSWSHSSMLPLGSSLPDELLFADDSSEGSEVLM

c-Abl (mouse) = assay: as above
c-Src = assay: as above
Grb2 SH2 = Grb2 SH2 (UniProt P62993); assay: SH2 binding enrichment of the phosphorylated peptide, bacterial display (enrichment ratio); higher = better substrate or ligand; peptides without Tyr show the background
SHP2-C SH2 = assay: as above
c-Src SH2 = assay: as above
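Wherever SH2 binding enrichment of the phosphorylated peptide, bacterial display is given: peptide library displayed on the E. coli surface as eCPX fusions, selected cells deep-sequenced, score is each peptide's frequency after selection divided by its frequency in the input.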
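Wherever phosphorylation enrichment, bacterial display is given: 11-residue human phosphosite peptides and single-mutation variants displayed on the E. coli surface, counted by deep sequencing, each peptide's frequency after selection divided by its frequency in the unselected input library; frequency after pTyr selection over input frequency; kinase dosed for 20-30% of maximal phosphorylation in three min.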

EPHB1, sequence (P54762 whole entry, looked up): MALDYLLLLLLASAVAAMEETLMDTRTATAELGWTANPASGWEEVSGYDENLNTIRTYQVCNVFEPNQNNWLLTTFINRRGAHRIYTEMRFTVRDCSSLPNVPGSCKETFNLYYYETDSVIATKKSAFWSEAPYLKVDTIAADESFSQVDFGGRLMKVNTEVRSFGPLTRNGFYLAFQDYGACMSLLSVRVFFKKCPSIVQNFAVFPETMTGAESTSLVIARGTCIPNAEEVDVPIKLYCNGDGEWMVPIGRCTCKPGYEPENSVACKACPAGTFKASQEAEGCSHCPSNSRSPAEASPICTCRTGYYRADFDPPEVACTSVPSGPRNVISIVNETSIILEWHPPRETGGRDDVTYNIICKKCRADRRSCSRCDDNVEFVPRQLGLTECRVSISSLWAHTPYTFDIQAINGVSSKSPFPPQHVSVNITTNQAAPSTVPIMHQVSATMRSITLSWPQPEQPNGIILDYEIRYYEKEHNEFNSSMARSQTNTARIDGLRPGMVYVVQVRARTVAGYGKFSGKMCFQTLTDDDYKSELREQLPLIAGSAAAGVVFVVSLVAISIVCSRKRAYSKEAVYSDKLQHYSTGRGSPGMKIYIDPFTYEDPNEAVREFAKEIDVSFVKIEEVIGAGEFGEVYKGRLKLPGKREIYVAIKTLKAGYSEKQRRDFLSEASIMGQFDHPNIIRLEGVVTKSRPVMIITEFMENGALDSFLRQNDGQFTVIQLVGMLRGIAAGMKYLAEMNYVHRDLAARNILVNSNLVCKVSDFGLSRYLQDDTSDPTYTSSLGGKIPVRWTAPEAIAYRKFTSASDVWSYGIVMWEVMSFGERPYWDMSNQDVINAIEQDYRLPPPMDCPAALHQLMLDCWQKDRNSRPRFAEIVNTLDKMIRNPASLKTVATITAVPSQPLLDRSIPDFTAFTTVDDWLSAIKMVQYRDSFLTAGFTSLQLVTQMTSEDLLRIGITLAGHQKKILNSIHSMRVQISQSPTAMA

Row | Sequence | phosphorylation enrichment (AncSZ) | phosphorylation enrichment (EPHB1) | phosphorylation enrichment (EPHB2) | phosphorylation enrichment (FGFR1) | phosphorylation enrichment (FGFR3) | phosphorylation enrichment (Fer (mouse)) | phosphorylation enrichment (Fes) | phosphorylation enrichment (Fyn) | phosphorylation enrichment (Hck) | phosphorylation enrichment (Jak2) | phosphorylation enrichment (MERTK) | phosphorylation enrichment (c-Abl (mouse)) | phosphorylation enrichment (c-Src) | SH2 binding enrichment (Grb2 SH2) | SH2 binding enrichment (SHP2-C SH2) | SH2 binding enrichment (c-Src SH2)
1 | GFRVCYTPDSR [PTPRF_Y451_Y450C_YF] | 1.26 | 0.513 | 0.512 | 0.472 | 0.691 | 0.548 | 1.34 | 0.397 | 0.507 | 1.01 | 0.419 | 0.777 | 0.451 | 0.787 | 0.687 | 0.444
2 | GGGGGYNCSSG [FUS_Y232_R234C] | 0.563 | 0.402 | 0.432 | 0.378 | 0.626 | 0.415 | 0.666 | 0.41 | 0.411 | 0.614 | 0.342 | 0.534 | 0.355 | 0.928 | 0.613 | 0.574
3 | GGRKGYGDFSR [RECQL5_Y478] | 0.416 | 0.412 | 0.354 | 0.345 | 0.363 | 0.352 | 0.622 | 0.334 | 0.33 | 0.422 | 0.425 | 0.944 | 0.418 | 1.15 | 0.798 | 0.674
4 | GGSDCYGSLRP [MYLK_Y846_R845C] | 0.703 | 0.466 | 0.508 | 0.351 | 0.566 | 0.558 | 0.887 | 2.79 | 3.08 | 0.792 | 0.429 | 0.746 | 2.75 | 0.694 | 0.608 | 0.36
5 | GGYTCYSDGKK [PROS1_Y266_C267S] | 1.13 | 0.677 | 0.561 | 0.592 | 0.826 | 0.593 | 1.22 | 0.458 | 0.499 | 1.01 | 0.441 | 0.908 | 0.516 | 0.677 | 0.745 | 0.555
6 | GHEFIYVDRMQ [PDGFRB_Y581_P584R_YF] | 0.777 | 0.47 | 0.685 | 0.555 | 0.624 | 0.382 | 0.836 | 1.42 | 1.11 | 0.541 | 0.479 | 0.651 | 2.02 | 0.92 | 0.741 | 0.399
7 | GHLFAYDWIRI [BEST1_Y227_S231R_YF] | 1 | 0.787 | 0.641 | 1.68 | 1.22 | 12.5 | 1.51 | 0.673 | 1.6 | 0.867 | 4.78 | 0.674 | 0.941 | 1.66 | 1.43 | 1.56
8 | GIVEDYRPPLY [ACVRL1_Y421_F425L] | 0.727 | 0.382 | 0.482 | 0.387 | 0.608 | 0.399 | 0.918 | 0.455 | 0.382 | 0.675 | 0.393 | 0.59 | 0.412 | 0.859 | 0.783 | 0.429
9 | GIYEDYVEGLR [MYL6_Y89_T85I] | 1.49 | 5.82 | 6.61 | 0.965 | 0.86 | 6.33 | 1.45 | 6.03 | 3.65 | 0.946 | 1.42 | 0.727 | 4.26 | 0.697 | 0.717 | 0.51
10 | GIYKDYYRYNF [PLA2G2D_Y85_S80G] | 1.4 | 5.44 | 5.13 | 12.2 | 9.59 | 0.938 | 0.805 | 5 | 3.32 | 7.91 | 4.72 | 5.76 | 4.78 | 1.13 | 1.31 | 1.03
11 | GKMSSYAFFVQ [HMGB1_Y16] | 1.01 | 0.809 | 0.711 | 0.603 | 0.741 | 0.474 | 1.14 | 0.505 | 0.513 | 1.01 | 1.29 | 0.849 | 0.562 | 1.13 | 1.51 | 0.982
12 | GKSFIYAAFHA [KCNT1_Y563_T562I] | 1.18 | 0.787 | 0.522 | 0.452 | 0.805 | 0.672 | 1.25 | 4.67 | 2.83 | 1.32 | 1.72 | 2.75 | 3.84 | 0.893 | 1 | 0.685
13 | GKSFTYAAFHA [KCNT1_Y563] | 0.849 | 0.603 | 0.613 | 0.51 | 0.583 | 0.454 | 0.812 | 5.65 | 4.03 | 0.826 | 0.819 | 0.654 | 5.91 | 0.855 | 0.527 | 0.41
14 | GLDSSYLLRDS [SH2D1A_Y29_G27S] | 0.477 | 0.343 | 0.36 | 0.613 | 0.426 | 0.305 | 0.612 | 0.386 | 0.323 | 0.464 | 0.422 | 0.434 | 0.386 | 0.908 | 0.64 | 0.476
15 | GLSSAYGDLTS [KRT8_Y427_G429D] | 0.718 | 0.56 | 0.429 | 0.506 | 0.486 | 0.479 | 0.659 | 0.454 | 0.535 | 0.535 | 0.413 | 0.536 | 0.464 | 0.878 | 0.655 | 0.608
16 | GQECEYPPTQD [METAP2_Y137] | 1.34 | 0.866 | 0.67 | 0.584 | 0.852 | 0.609 | 1.41 | 0.534 | 0.63 | 1.24 | 0.525 | 1.06 | 0.563 | 0.918 | 0.831 | 0.521
17 | GQKVAYGGTED [ALDH3A1_Y305_G309E] | 0.747 | 0.424 | 0.471 | 0.412 | 0.63 | 0.344 | 0.939 | 0.438 | 0.402 | 0.791 | 0.417 | 0.577 | 0.412 | 0.788 | 0.549 | 0.471

Row | Sequence | phosphorylation enrichment (AncSZ) | phosphorylation enrichment (EPHB1) | phosphorylation enrichment (EPHB2) | phosphorylation enrichment (FGFR1) | phosphorylation enrichment (FGFR3) | phosphorylation enrichment (Fer (mouse)) | phosphorylation enrichment (Fes) | phosphorylation enrichment (Fyn) | phosphorylation enrichment (Hck) | phosphorylation enrichment (Jak2) | phosphorylation enrichment (MERTK) | phosphorylation enrichment (c-Abl (mouse)) | phosphorylation enrichment (c-Src) | SH2 binding enrichment (Grb2 SH2) | SH2 binding enrichment (SHP2-C SH2) | SH2 binding enrichment (c-Src SH2)
18 | GRGMPYGGRGD [TGM1_Y312_R307G] | 0.476 | 0.338 | 0.325 | 0.355 | 0.449 | 0.399 | 0.476 | 0.343 | 0.4 | 0.488 | 0.379 | 0.513 | 0.402 | 0.87 | 0.648 | 0.513
19 | GRIHSYRGHLW [VHL_Y112_R107G] | 0.585 | 0.387 | 0.392 | 0.363 | 0.438 | 0.373 | 0.712 | 0.38 | 0.359 | 0.535 | 0.357 | 0.51 | 0.347 | 1.85 | 1.99 | 1.61
20 | GRLVEYDIDEV [SMS_Y134] | 1.28 | 0.709 | 1.05 | 0.494 | 0.771 | 0.658 | 1.48 | 0.508 | 0.549 | 1.45 | 0.489 | 0.902 | 0.563 | 0.812 | 0.613 | 0.845
21 | GRPLFYWLTGC [LYZL6_Y140] | 0.968 | 0.686 | 0.491 | 0.533 | 0.836 | 0.418 | 1.13 | 0.407 | 0.42 | 1.04 | 0.469 | 0.713 | 0.33 | 0.803 | 0.85 | 0.527
22 | GRPLSYWLTGC [LYZL6_Y140_F139S] | 1.12 | 0.686 | 0.664 | 0.535 | 0.793 | 0.556 | 1.33 | 0.527 | 0.503 | 1.24 | 0.411 | 0.846 | 0.397 | 0.763 | 0.681 | 0.464
23 | GRQVIYTENER [GPR143_Y231_G229V] | 0.531 | 0.441 | 0.41 | 0.435 | 0.479 | 0.382 | 0.89 | 0.407 | 0.462 | 0.552 | 0.43 | 0.537 | 0.513 | 0.729 | 0.681 | 0.558
24 | GRRNTYFASIA [ACADM_Y352_YF] | 0.722 | 0.346 | 0.423 | 0.439 | 0.507 | 0.481 | 0.556 | 0.551 | 0.423 | 0.5 | 0.466 | 0.588 | 0.615 | 0.696 | 0.528 | 0.356
25 | GSESDYIVMPN [SCARB1_Y133] | 2.88 | 8.5 | 8.31 | 5.92 | 3.84 | 0.455 | 1.04 | 0.575 | 0.527 | 1.03 | 0.538 | 0.752 | 0.63 | 0.874 | 0.55 | 0.455
26 | GSRGKCSSGFR [ATM_Y332_Y332C] | 0.471 | 0.41 | 0.379 | 0.403 | 0.423 | 0.433 | 0.558 | 0.395 | 0.464 | 0.532 | 0.411 | 0.709 | 0.387 | 1.06 | 0.713 | 0.915
27 | GSSSSCGQHGS [HRNR_Y517_Y517C] | 0.556 | 0.342 | 0.311 | 0.363 | 0.522 | 0.38 | 0.622 | 0.4 | 0.333 | 0.448 | 0.294 | 0.411 | 0.283 | 0.982 | 0.875 | 0.553
28 | GTFVIYVRFSG [FLNB_Y1687_G1691S_YF] | 1.17 | 0.572 | 0.468 | 0.406 | 0.569 | 0.443 | 1.4 | 0.426 | 0.454 | 1.14 | 0.472 | 0.979 | 0.539 | 1.15 | 0.812 | 0.442
29 | GTVRDYPDFSP [ANXA3_Y15] | 0.759 | 0.44 | 0.559 | 0.508 | 0.587 | 0.395 | 0.79 | 0.444 | 0.49 | 0.702 | 0.364 | 0.532 | 0.372 | 0.732 | 0.623 | 0.439
30 | GVFSRHFTTFD [CLCA1_Y661_Y661H_YF] | 1.31 | 0.953 | 1.1 | 0.644 | 0.814 | 0.946 | 1.05 | 0.48 | 1.03 | 0.483 | 0.166 | 0.346 | 0.184 | 0.674 | 0.612 | 1.78
31 | GVPLGYPIKAP [ELN_Y206] | 0.563 | 0.323 | 0.388 | 0.462 | 0.399 | 0.45 | 0.573 | 0.384 | 0.388 | 0.534 | 0.419 | 0.485 | 0.427 | 0.716 | 0.666 | 0.573
32 | GVRFTYTIDGS [DCX_Y105_I104T_YF] | 1.26 | 0.458 | 0.67 | 0.601 | 0.729 | 0.384 | 1.33 | 0.426 | 0.496 | 1.24 | 0.423 | 0.715 | 0.435 | 0.87 | 0.545 | 0.475
33 | HDRREYSRFEK [ITGB7_Y758_Y753H] | 0.743 | 0.754 | 0.373 | 0.585 | 0.718 | 0.731 | 0.973 | 0.317 | 0.524 | 0.647 | 0.445 | 0.887 | 0.53 | 0.965 | 0.873 | 0.722
